The text below walks through data of US20220251204A1 (AstraZeneca / MedImmune, published 2022).

Broadly, the EC50 (read off the curve) is the midpoint of the concentration-response curve. Read a low EC50 (read off the curve) as an effect from little substance. By IC50 is commonly meant the concentration that inhibits the measured activity by half. For orientation: Kd means the equilibrium constant for the complex coming apart. By koff is commonly meant the rate constant with which the complex falls apart. Higher therefore signals fast dissociation. In general, kon refers to the rate constant with which the complex forms. Low readings indicate slower complex formation, high ones faster complex formation.

B1: hOX40-Fc (human recombinant protein, R&D Systems) (Fc fusion)
chain: LHCVGDTYPSNDRCCHECRPGNGMVSRCSRSQNTVCRPCGPGFYNDVVSSKPCKPCTWCNLRSGSERKQLCTATQDTVCRCRAGTQPLDSYKPGVDCAPCPPGHFSPGDNQACKPWTNCTLAGKHTLQPASNSSDAICEDRDPPATQPQETQGPPARPITVQPTEAWPRTSQGPSTRPVEVPGGRAVA
notes: also called human OX40-Fc; not shown: Fc part of the bought fusion
B2: OX40(SLR)/PD-L1 BiS5 (bispecific antibody, human IgG1, kappa)
heavy: QVQLQESGPGLVKPSQTLSLTCAVYGGSFSSGYWNWIRKHPGKGLEYIGYISYNAITYHNPSLKSRITINRDTSKNQYSLQLNSVTPEDTAVYYCARYKYDYEGGHAMDYWGQGTLVTVSSASTKGPSVFPLAPSSKSTSGGTAALGCLVKDYFPEPVTVSWNSGALTSGVHTFPAVLQSSGLYSLSSVVTVPSSSLGTQTYICNVNHKPSNTKVDKRVEPKSCDKTHTCPPCPAPELLGGPSVFLFPPKPKDTLMISRTPEVTCVVVDVSHEDPEVKFNWYVDGVEVHNAKTKPREEQYNSTYRVVSVLTVLHQDWLNGKEYKCKVSNKALPAPIEKTISKAKGQPREPQVYTLPPSREEMTKNQVSLTCLVKGFYPSDIAVEWESNGGGGSGGGGSEVQLVESGGGLVQPGGSLRLSCAASGFTFSRYWMSWVRQAPGKCLEWVANIKQDGSEKYYVDSVKGRFTISRDNAKNSLYLQMNSLRAEDTAVYYCAREGGWFGELAFDYWGQGTLVTVSSGGGGSGGGGSGGGGSGGGGSEIVLTQSPGTLSLSPGERATLSCRASQRVSSSYLAWYQQKPGQAPRLLIYDASSRATGIPDRFSGSGSGTDFTLTISRLEPEDFAVYYCQQYGSLPWTFGCGTKVEIKGGGGSGGGGSGQPENNYKTTPPVLDSDGSFFLYSKLTVDKSRWQQGNVFSCSVMHEALHAHYTQKSLSLSPGK
light: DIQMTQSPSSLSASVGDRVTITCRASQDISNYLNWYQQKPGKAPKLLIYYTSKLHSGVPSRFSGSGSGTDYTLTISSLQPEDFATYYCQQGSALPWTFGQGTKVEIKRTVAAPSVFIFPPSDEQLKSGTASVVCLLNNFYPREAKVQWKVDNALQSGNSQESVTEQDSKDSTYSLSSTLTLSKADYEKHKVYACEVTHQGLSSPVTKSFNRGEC
notes: also called BiS5 OX40Ab/PD-L1; PD-L1/OX40 BiS5
B3: Anti-PD-1 (LO115) IgG (antibody, V domains shown)
VH: EVQLVESGGGLVQPGGSLRLSCAASGFTFSDYGMHWVRQAPGKGLEWVAYISSGSYTIYSADSVKGRFTISRDNAKNSLYLQMNSLRAEDTAVYYCARRAPNSFYEYYFDYWGQGTTVTVSS
VL: QIVLTQSPATLSLSPGERATLSCSASSKHTNLYWSRHMYWYQQKPGQAPRLLIYLTSNRATGIPARFSGSGSGTDFTLTISSLEPEDFAVYYCQQWSSNPFTFGQGTKLEIK
notes: also called anti-PD-1 parental monoclonal antibody
B4: O13-1 IgG1-TM (antibody, V domains shown)
VH: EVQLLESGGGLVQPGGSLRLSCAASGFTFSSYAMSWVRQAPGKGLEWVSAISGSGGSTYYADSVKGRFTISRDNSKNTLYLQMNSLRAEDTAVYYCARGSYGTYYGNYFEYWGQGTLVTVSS
VL: SYVLTQPPSVSVAPGKTARITCGGDNIGGKSVHWYQQKPGQAPVLVIYYDSDRPSGIPERFSGSNSGNTATLTISRVEAGDEADYYCQVLDRRSDHFLFGGGTKLTVLG
notes: also called anti-TIM3 LOO131

Experiment [1] concerns the target T1, His-tagged PD-L1-Fc (human recombinant protein, R&D Systems) (human, UniProt Q9NZQ7 19-238).
T1 construct: also called PD-L1-His
The experiment can be described thus: Octet: PDL1-HiS-Fc loaded anti-HiS sensor, 5ug/mL rhOx40-Fc association.

Experiment [2] deals with T2, CD32a expressed on HEK cells (UniProt P12318 34-317).
T2 construct: whole, on cells; also called HEK CD32a cells
T2 sequence (looked up): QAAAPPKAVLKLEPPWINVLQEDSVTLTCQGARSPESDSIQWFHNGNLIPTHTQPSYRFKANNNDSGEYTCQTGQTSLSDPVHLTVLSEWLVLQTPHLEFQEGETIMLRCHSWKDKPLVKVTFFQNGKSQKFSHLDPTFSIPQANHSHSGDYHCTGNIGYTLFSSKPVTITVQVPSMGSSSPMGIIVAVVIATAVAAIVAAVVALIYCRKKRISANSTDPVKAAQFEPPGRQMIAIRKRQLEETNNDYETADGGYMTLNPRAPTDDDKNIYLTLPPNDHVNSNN
Briefly: flow cytometry (HyperCyt, FL4-H median) on HEK CD32a cells, concentration not given. (In flow cytometry, cells or beads pass a laser one at a time.)

Experiment [3] concerns the target T3, human OX40 expressed on cells (human, UniProt P43489 29-277).
T3 construct: also called CHO cells expressing human OX40; Jurkat OX40 reporter cells
T3 sequence: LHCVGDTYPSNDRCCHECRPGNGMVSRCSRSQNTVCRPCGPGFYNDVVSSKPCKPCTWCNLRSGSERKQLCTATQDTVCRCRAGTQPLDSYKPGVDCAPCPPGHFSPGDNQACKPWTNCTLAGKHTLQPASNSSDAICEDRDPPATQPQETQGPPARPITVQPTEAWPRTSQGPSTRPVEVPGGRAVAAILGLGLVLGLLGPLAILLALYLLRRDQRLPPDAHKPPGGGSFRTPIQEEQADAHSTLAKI
Briefly: flow cytometry (HyperCyt, FL4-H median) on Jurkat OX40 cells, one condition, concentration not given.

For experiment [4], the target named is B1. The experiment can be described thus: Octet: antibody held on PDL1-HiS-Fc loaded anti-HiS sensor, then 5ug/mL rhOx40-Fc association. A general note: In BLI a coated tip is dipped into the sample, and binding shifts an interference pattern.
Experiment [5] addresses T4, human PD-1 expressed on cells (human, UniProt Q15116 25-288).
T4 construct: also called CHO cells overexpressing human PD1
Briefly: flow cytometry, IgG binding to cultured T cells stimulated with anti-CD3+anti-CD28, CD4+ gate.

The target in experiment [6] is T4, human PD-1 expressed on cells. Briefly: flow cytometry, CHO cells expressing PD-1:CTLA-4 (10:1).
For experiment [7] the target is unchanged. The experiment can be described thus: flow cytometry receptor occupancy, CHO cells expressing PD-1:CTLA-4 (40:1); free PD-1 detected with labeled anti-PD-1 mAb.
A further experiment has as its target T5, mouse PD-1 (mouse, UniProt Q02242 25-167).
T5 construct: also called mu PD1
T5 sequence (looked up): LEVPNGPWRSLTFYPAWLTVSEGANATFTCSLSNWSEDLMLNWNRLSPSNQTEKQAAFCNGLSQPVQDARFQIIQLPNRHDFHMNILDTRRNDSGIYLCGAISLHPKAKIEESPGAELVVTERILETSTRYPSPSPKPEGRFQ
The experiment can be described thus: SPR, BIAcore T200; antibody captured on mouse anti-huIgG-Fab, antigen injected. For orientation: SPR reads the build-up and loss of mass on a sensor chip optically.

The next experiment addresses T6, cynomolgus PD-1 (cynomolgus, UniProt B0LAJ3 25-170).
T6 construct: also called cyno PD1
The description is as above.

In experiment [8] the target is T7, human PD-1 antigen (soluble) (human, UniProt Q15116 25-170).
T7 construct: also called hu PD1; Biotinylated human PD-1
The description is as above.

In experiment [9] the target is T4, human PD-1 expressed on cells. The experiment can be described thus: flow cytometry receptor occupancy, CHO cells expressing PD-1:CTLA-4 (40:1), combination of the anti-PD-1 and anti-CTLA-4 mAbs; free PD-1 detected with labeled anti-PD-1 mAb; the light-triangle curve crosses 50 % at about 6 to 7 nM.
For experiment [10] the target is unchanged. The experiment can be described thus: flow cytometry receptor occupancy, CHO cells expressing PD-1:CTLA-4 (10:1); free PD-1 detected with labeled anti-PD-1 mAb.
Experiment [11] concerns the target T8, human TIM3 expressed on CHO cells (human, UniProt Q8TDQ0 22-301).
T8 construct: also called CHO cells overexpressing human TIM3
T8 sequence: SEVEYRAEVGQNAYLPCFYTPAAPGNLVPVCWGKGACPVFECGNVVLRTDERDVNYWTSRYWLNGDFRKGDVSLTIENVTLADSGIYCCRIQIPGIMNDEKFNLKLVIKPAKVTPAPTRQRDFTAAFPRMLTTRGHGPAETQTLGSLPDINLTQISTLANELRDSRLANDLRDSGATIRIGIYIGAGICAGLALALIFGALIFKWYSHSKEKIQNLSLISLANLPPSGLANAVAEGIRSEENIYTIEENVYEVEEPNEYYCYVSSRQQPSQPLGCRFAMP
Briefly: flow cytometry, Human TIM3 CHO cells, x axis hIgG1TM (nM).

In experiment [12] the target is T4, human PD-1 expressed on cells. Briefly: flow cytometry, HumanPD1 CHO cells, x axis hIgG1TM mAb (nM).
The target in another experiment is T9, cynomolgus TIM3 (cynomolgus, UniProt A0A2K5U3G7 22-195).
T9 construct: also called Cyno TIM3
T9 sequence: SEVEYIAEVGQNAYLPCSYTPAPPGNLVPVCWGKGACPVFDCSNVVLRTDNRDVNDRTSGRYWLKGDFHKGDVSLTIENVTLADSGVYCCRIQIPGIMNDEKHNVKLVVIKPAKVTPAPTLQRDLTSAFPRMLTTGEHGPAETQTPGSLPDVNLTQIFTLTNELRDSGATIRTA
The experiment can be described thus: SPR, BIAcore T200; antibody captured on mouse anti-huIgG-Fab, antigen injected.

For the next experiment, the target named is T10, human TIM3 (soluble) (human, UniProt Q8TDQ0 22-202).
T10 construct: also called Biotinylated human TIM3
T10 sequence: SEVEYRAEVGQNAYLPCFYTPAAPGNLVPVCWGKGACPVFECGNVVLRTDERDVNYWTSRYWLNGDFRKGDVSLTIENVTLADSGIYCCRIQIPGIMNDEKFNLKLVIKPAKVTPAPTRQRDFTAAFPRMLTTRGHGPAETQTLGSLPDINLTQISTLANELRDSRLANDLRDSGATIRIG
The experiment is described as above.

T6 sequence (B0LAJ3 entry or part of it limits assumed): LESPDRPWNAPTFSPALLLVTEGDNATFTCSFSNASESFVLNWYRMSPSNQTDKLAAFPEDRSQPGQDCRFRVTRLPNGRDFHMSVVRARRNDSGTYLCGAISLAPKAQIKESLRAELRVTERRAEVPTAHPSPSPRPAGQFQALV
T7 sequence (Q15116 25-170 limits assumed): as the sequence (B0LAJ3 entry or part of it limits assumed) above, with E2D, A10P, L19V, A35T, R75Q, A144T counted along it
T4 sequence (Q15116 25-288 limits assumed): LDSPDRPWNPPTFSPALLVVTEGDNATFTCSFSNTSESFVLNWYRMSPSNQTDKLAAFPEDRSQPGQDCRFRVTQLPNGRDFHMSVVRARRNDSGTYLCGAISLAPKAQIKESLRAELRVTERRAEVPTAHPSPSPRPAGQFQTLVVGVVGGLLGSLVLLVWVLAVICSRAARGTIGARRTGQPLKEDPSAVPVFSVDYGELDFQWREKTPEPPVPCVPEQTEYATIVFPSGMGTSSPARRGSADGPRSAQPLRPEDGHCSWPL
T1 sequence (Q9NZQ7 19-238 limits assumed): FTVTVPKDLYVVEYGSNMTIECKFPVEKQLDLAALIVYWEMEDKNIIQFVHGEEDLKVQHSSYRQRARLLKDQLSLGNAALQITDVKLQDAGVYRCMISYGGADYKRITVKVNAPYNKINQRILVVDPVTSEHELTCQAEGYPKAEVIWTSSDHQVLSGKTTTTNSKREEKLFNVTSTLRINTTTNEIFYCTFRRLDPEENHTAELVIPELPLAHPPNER

As for B1, the binding result in [1] is “no binding (tested: 5ug/mL)”.

Consider B2, for which the binding result in [2], in [3] and in experiment [4] was “binds” in each case.

For the molecule B3, the 50% effective concentration (EC50 (read off the curve)) in [5] is roughly 1 nM; in [6], roughly 2 nM. Moreover, the half-maximal inhibitory concentration (IC50) in experiment [7] was 5.5 nM; in [9], 6.4 nM; in experiment [10] it was 3.9 nM. The Kd with mouse PD-1 came to 447 nM; in the experiment with cynomolgus PD-1 it was 0.69 nM; in [8], 0.79 nM. For the same molecule, the koff is 0.0665 s⁻¹ with mouse PD-1, 0.000238 s⁻¹ with cynomolgus PD-1 and 0.000237 s⁻¹ in experiment [8]. For the same molecule, the kon with mouse PD-1 was 149000 M⁻¹ s⁻¹; with cynomolgus PD-1 it was 346000 M⁻¹ s⁻¹; in experiment [8] it was 302000 M⁻¹ s⁻¹.

Take B4: in experiment [11], the “EC50 (read off the curve)” value is roughly 0.03 nM. In addition, the binding result in experiment [12] was “no binding (tested: about 100 nM)”. In the experiment with cynomolgus TIM3, this molecule gave a Kd of 25.7 nM, an off-rate constant (koff) of 0.0718 s⁻¹ and a kon of 2.79e+06 M⁻¹ s⁻¹. Further, in the experiment with human TIM3 (soluble), the affinity, expressed as Kd, was 4.01 nM; the off-rate constant (koff) was found to be 0.00752 s⁻¹; the kon worked out at 1.88e+06 M⁻¹ s⁻¹.
